In article PMC2172336 one finds fold above background (two-hybrid reporter) data, which are given here for one molecule.

This experiment deals with Kss1-7m3-GBD (Kss1-7m3 fused to the Gal4 DNA-binding domain) (S. cerevisiae) (UniProt P14681). In words: two-hybrid.
Chain of Kss1-7m3-GBD (Kss1-7m3 fused to the Gal4 DNA-binding domain) (S. cerevisiae) (P14681 whole entry, the tested form may be a part): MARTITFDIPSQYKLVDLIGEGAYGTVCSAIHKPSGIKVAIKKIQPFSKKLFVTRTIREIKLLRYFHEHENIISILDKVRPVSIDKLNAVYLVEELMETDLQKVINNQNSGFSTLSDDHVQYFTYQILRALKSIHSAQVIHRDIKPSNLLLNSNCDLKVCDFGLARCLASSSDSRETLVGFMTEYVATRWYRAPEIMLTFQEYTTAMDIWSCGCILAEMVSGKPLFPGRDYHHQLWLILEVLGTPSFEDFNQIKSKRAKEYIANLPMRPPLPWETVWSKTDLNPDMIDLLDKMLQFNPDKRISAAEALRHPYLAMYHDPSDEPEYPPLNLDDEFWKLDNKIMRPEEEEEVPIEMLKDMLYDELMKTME

B1: Ste12-GAD (Ste12 fused to the Gal4 transcriptional activation domain) (natural protein)
chain: MKVQITNSRTEEILKVQANNENDEVSKATPGEVEESLRLIGDLKFFLATAPVNWQENQIIRRYYLNSGQGFVSCVFWNNLYYITGTDIVKCCLYRMQKFGREVVQKKKFEEGIFSDLRNLKCGIDATLEQPKSEFLSFLFRNMCLKTQKKQKVFFWFSVAHDKLFADALERDLKRESLNQPSTTKPVNEPALSFSYDSSSDKPLYDQLLQHLDSRRPSSTTKSDNSPPKLESENFKDNELVTVTNQPLLGVGLMDDDAPESPSQINDFIPQKLIIEPNTLELNGLTEETPHDLPKNTAKGRDEEDFPLDYFPVSVEYPTEENAFDPFPPQAFTPAAPSMPISYDNVNERDSMPVNSLLNRYPYQLSVAPTFPVPPSSSRQHFMTNRDFYSSNNNKEKLVSPSDPTSYMKYDEPVMDFDESRPNENCTNAKSHNSGQQTKQHQLYSNNFQQSYPNGMVPGYYPKMPYNPMGGDPLLDQAFYGADDFFFPPEGCDNNMLYPQTATSWNVLPPQAMQPAPTYVGRPYTPNYRSTPGSAMFPYMQSSNSMQWNTAVSPYSSRAPSTTAKNYPPSTFYSQNINQYPRRRTVGMKSSQGNVPTGNKQSVGKSAKISKPLHIKTSAYQKQYKINLETKARPSAGDEDSAHPDKNKEISMPTPDSNTLVVQSEEGGAHSLEVDTNRRSDKNLPDAT
Consider B1, for which the fold above background (two-hybrid reporter) came to 6 fold.
